Blank lines part the entries; values can stand above or below the molecule they belong to.
Columns and labels:
[1] = molecular target: OL3:My4LMy5 complex (obscurin-like-1:myomesin heterodimer) (human) (UniProt O75147); test: crystal structure; OL3:My4LMy5 complex at 3.0 mg/mL; 20% PEG8000, 0.1 M Tris-HCl pH 8.5, 0.2 M MgCl2, matrix microseeding; 3.1 Å, space group C2
[2] = molecular target: OL3:My4LMy5 complex (obscurin-like-1:myomesin heterodimer) (human) (UniProt O75147); test: SEC; Superdex S75 10/300; OL3:My4LMy5 complex injected at 3.0 and 8.2 mg/mL (0.082–0.225 mM); dimer of heterodimers to heterodimers
[3] = molecular target: T1, obscurin-like-1 third immunoglobulin domain (OL3) (human, UniProt O75147 251-339); test: SEC; GST-cleaved complexes co-expressed in E. coli from a bicistronic vector; SEC during purification; conditions: both partners purified
T1 construct: obscurin-like-1, human, third Ig domain (OL3); the printed contact residues F265 to V332 lie in it; Insoluble when expressed alone; obtained only by co-expression with myomesin; Construct limits are in the Supplemental Experimental Procedures; source: E. coli, co-expressed with myomesin from a bicistronic vector, purified as a complex (SEC); not shown: GST, N-terminal, cleaved
T1 sequence: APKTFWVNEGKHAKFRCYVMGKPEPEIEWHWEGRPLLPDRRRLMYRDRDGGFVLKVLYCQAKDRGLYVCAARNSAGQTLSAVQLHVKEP

[4] = molecular target: T2, obscurin third immunoglobulin domain (O3) (human, UniProt Q5VST9 236-331); test: as above; conditions: both partners purified
T2 construct: obscurin, human, third Ig domain (O3); Insoluble when expressed alone; source: E. coli, co-expressed with myomesin My4LMy5 from a bicistronic vector, purified as a complex (SEC); not shown: GST, N-terminal, cleaved
T2 sequence (looked up): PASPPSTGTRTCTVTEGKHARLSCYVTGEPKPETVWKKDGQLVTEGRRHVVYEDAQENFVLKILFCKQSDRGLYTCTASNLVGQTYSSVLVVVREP

stoichiometry N [1]: 2
dimer:monomer ratio at 8.2 mg/mL [2]: 30 % dimer
stoichiometry N [2]: 2
Molecule: OL3:My4LMy5 complex (obscurin-like-1:myomesin heterodimer) (from UniProt O75147 251-339; P52179 510-739)

stoichiometry N [3]: 1
stoichiometry N [4]: 1
B1: myomesin region encompassing the fourth and fifth Fn-III domains (My4LMy5) (domain or fragment, human)
chain: PAAPLDVKCLEANKDYIIISWKQPAVDGGSPILGYFIDKCEVGTDSWSQCNDTPVKFARFPVTGLIEGRSYIFRVRAVNKMGIGFPSRVSEPVAALDPAEKARLKSRPSAPWTGQIIVTEEEPSEGIVPGPPTDLSVTEATRSYVVLSWKPPGQRGHEGIMYFVEKCEAGTENWQRVNTELPVKSPRFALFDLAEGKSYCFRVRCSNSAGVGEPSEATEVTVVGDKLDIP
notes: myomesin (MYOM1), human, Fn-III domains My4 and My5 with the linker L between them; My4 begins near residue 510 (My4LH is 510-618); My5 is in the crystallised protein but invisible in the electron density; Construct limits are in the Supplemental Experimental Procedures; also called My4L (name of the part visible in the crystal); source: E. coli, co-expressed with GST-OL3 or GST-O3 from a …

Source: PMC5222588, “Binding of Myomesin to Obscurin-Like-1 at the Muscle M-Band Provides a Strategy for Isoform-Specific Mechanical Protection” (Structure(London, England:1993), 2017)
